Data taken from patent publication US20180185504A1 (Regeneron, published 2018).

T1: human PRLR on cells (endogenous on T47D, T47D#11, MCF7); introduced in HEK293/hPRLR/STAT5-Luc, 293/hPRLR, … (human, UniProt P16471 25-622)
T1 sequence: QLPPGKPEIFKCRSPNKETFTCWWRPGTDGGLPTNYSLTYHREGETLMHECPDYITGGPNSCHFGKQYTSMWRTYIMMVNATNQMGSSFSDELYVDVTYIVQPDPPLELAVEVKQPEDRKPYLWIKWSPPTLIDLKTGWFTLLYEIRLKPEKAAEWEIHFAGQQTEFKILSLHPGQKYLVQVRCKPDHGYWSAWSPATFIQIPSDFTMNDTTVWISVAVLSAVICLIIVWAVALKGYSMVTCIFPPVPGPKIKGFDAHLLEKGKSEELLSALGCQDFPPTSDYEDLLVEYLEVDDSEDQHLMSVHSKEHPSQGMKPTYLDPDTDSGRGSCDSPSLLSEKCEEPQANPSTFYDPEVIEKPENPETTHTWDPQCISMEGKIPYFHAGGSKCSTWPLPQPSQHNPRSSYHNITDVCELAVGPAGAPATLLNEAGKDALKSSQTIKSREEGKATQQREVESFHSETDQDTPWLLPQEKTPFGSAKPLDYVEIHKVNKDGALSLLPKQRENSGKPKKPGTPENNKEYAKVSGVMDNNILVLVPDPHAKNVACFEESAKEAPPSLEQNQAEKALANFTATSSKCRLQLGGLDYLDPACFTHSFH

T2: hPRLR.mFc (soluble dimeric human PRLR) (human)
T2 construct: dimeric PRLR construct
T2 chain: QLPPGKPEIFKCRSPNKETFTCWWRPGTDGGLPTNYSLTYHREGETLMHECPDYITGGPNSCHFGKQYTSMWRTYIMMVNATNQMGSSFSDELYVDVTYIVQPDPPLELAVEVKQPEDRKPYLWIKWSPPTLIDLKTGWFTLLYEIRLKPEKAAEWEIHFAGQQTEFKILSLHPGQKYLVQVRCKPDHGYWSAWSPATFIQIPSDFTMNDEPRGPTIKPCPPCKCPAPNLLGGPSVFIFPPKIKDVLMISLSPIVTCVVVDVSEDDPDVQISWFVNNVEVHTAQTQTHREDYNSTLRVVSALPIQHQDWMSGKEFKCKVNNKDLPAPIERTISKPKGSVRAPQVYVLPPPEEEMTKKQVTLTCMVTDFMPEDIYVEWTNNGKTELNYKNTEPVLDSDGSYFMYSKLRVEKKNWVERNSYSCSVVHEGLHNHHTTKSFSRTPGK

T3: mfPRLR.mmh (soluble monomeric macaca fascicularis PRLR) (macaca fascicularis)
T3 construct: soluble monomeric PRLR protein; also called macaca fascicularis (mf) PRLR.mmh; monkey PRLR
T3 chain: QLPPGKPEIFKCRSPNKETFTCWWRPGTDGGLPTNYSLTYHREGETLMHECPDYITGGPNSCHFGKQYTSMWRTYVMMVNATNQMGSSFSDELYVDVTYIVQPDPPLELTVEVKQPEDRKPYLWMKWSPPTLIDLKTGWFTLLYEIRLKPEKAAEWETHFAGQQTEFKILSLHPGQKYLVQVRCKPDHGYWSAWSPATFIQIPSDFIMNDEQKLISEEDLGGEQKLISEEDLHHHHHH

T4: hPRLR.mmh (soluble monomeric human PRLR) (human)
T4 construct: soluble monomeric PRLR protein
T4 chain: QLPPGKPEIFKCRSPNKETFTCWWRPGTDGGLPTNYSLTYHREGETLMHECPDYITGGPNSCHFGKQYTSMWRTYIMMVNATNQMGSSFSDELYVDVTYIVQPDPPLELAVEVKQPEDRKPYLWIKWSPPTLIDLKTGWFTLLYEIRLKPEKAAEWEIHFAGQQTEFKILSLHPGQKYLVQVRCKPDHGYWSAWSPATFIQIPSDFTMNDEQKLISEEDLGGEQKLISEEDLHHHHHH


Key:
[1] = target: T1, human PRLR on cells (endogenous on …); test: cell-based or functional assay
[2] = target: T2, hPRLR.mFc (soluble dimeric human PRLR); test: SPR (Biacore), antibody capture, 37 C
Description: (§1) Measurements were conducted on a T200 Biacore instrument. Kinetic association (kₐ) and dissociation (kd) rate constants were determined by processing and fitting the data to a 1:1 binding model using Scrubber 2.0 curve fitting software.

[3] = target: T3, mfPRLR.mmh (soluble monomeric macaca …); test: SPR (Biacore), antibody capture, 37 C
Description: as §1

[4] = target: T4, hPRLR.mmh (soluble monomeric human PRLR); test: SPR (Biacore), antibody capture, 37 C
Description: as §1

Binder	IC50 of Blocking 5 nM PRL [M] (STAT5-Luc reporter, HEK293/hPRLR/STAT5-Luc cells) [1]	Percent Blocking at 100 nM Antibody (STAT5-Luc reporter) [1]	Kd [2]	T 1/2 [2]	koff [2]	kon [2]	Kd [3]	T 1/2 [3]	koff [3]	kon [3]	Kd [4]	T 1/2 [4]	koff [4]	kon [4]
H1H6797P (antibody, human IgG1, V domains shown, human IgG1 Fc (H1H)) VH: EVQLVESGGGLVQPGGSLRLSCIVSGFTFSGSWMSWVRQLPGKGLEWVANIKEDGSDSYYVDSVEGRFTISRDNAKSSLYLQMNSLRVDDTAVYFCARARTVPLHYWGQGTLVTVSS VL: DIQMTQSPSTLSASVGDRVTITCRASQSINIWLAWYQQKPGKAPKLLIYRASYLESGVPSSFAGGGSGTEFTLTISSLQPDDFGTYYCQHYNSYPFTFGQGTKLEIK		0%	0.0691 nM	93 min	0.000125 s⁻¹	1.8e+06 M⁻¹ s⁻¹	9.9 nM	1 min	0.00906 s⁻¹	914000 M⁻¹ s⁻¹	6.37 nM	1 min	0.00822 s⁻¹	1.29e+06 M⁻¹ s⁻¹
H1H6966N (antibody, human IgG1, V domains shown, also called H2M6966N) VH: QVQLVQSGAEVQKPGASVKVSCKVSGYTLTALSIHWVRQAPGKGLEWMGNFDPGDGETIHAQKFQGRVTMTGDTSTDTAYMELSSLRSEDTAVYYCVGVTFDYWGQGTLVTVSS VL: EIVMTQSPATLSVSPGERATLSCRASQSVASNLAWYQQKPGQAPRLLLYGASTRATGIPARFSGSGSGTEFTLTISSLQSEDFALYYCQHYNNWPLTFGGGTKVEIK		54%	0.0672 nM	91.3 min	0.000127 s⁻¹	1.88e+06 M⁻¹ s⁻¹	0.982 nM	9.6 min	0.0012 s⁻¹	1.22e+06 M⁻¹ s⁻¹	0.607 nM	12 min	0.00096 s⁻¹	1.58e+06 M⁻¹ s⁻¹
H1H6790P (antibody, human IgG1, V domains shown, human IgG1 Fc (H1H)) VH: EVQLVESGGGLVQPGGSLRLSCAASGFTFSSYAMTWVRQAPGKGLEWVSAITGSVGNTYYADSVKGRFTISRDNSKNTLYLQMNSLGAEDTAEYYCAKGAGMTTNWYLDLWGRGTLVTVSS VL: DIVMTQSPDSLAVSLGARATINCKSSQSVLYSSNNQNYLTWYQQKPGQPPKLLIKWASTRESGVPDRFSGSGSGTDFTLTISSLQAEDVAVYYCQQYASSPYTFGQGTKLEIK	2.06e-10 M	100%	0.306 nM	58 min	0.000198 s⁻¹	646000 M⁻¹ s⁻¹	5.22 nM	4 min	0.00321 s⁻¹	615000 M⁻¹ s⁻¹	3.5 nM	4 min	0.00329 s⁻¹	940000 M⁻¹ s⁻¹

Results, then the binder that gave them:

IC50 of Blocking 5 nM PRL [M] (STAT5-Luc reporter, HEK293/hPRLR/STAT5-Luc cells) [1]	Percent Blocking at 100 nM Antibody (STAT5-Luc reporter) [1]	Kd [2]	T 1/2 [2]	koff [2]	kon [2]	Kd [3]	T 1/2 [3]	koff [3]	kon [3]	Kd [4]	T 1/2 [4]	koff [4]	kon [4]	Binder
1.58e-09 M	100%	0.5 nM	78.7 min	0.000147 s⁻¹	294000 M⁻¹ s⁻¹	14.9 nM	9 min	0.00128 s⁻¹	86400 M⁻¹ s⁻¹	16.2 nM	5.8 min	0.00198 s⁻¹	122000 M⁻¹ s⁻¹	H1H6960N (antibody, human IgG1, V domains shown, also called H2M6960N) VH: EVQLVESGGGLVKPGGSLRLSCAASGITFSSYSMNWVRQAPGKGLEWVSSISTRSSLIHYADSVKGRFTISRDNAKNSLYLQMNSLRDEDTAVYYCARWDAAAAFDYWGQGTLVIVSS VL: DIQLTQSPSFLSASVGDRVTITCWASQGISSYLAWYQQKPGKAPKLLIYVASTLQSGVPSRFSGSGSGTEFTLTISSLQPEDFATYFCQQLNSYPLTFGGGTKVEIK
7.89e-09 M	100%	0.369 nM	56 min	0.000205 s⁻¹	554000 M⁻¹ s⁻¹	9.35 nM	3 min	0.00426 s⁻¹	455000 M⁻¹ s⁻¹	6.34 nM	3 min	0.00385 s⁻¹	607000 M⁻¹ s⁻¹	H1H6804P (antibody, human IgG1, V domains shown, human IgG1 Fc (H1H)) VH: QVTLKESGPVLVKPTQTLSLTCTVSGFSLSDAGMGVSWIRQPPGKALEWLAHIFSNDGKSYSTSLKSRLTISKDTSKRQVVLTMTNMDPVDTATYYCARIRTGTYSLYLDYWGQGTLVTVSS VL: DIQMTQSPSSLSASVGDRVTITCRASQSINSYLNWYQQKPGKAPKLLLYFASSLQSGVPSRFSGSGSGTDFTLTISSLQPEDFASYYCQESYSTPWTFGQGTKVEIK
	52%	4.51 nM	5 min	0.0023 s⁻¹	509000 M⁻¹ s⁻¹	370 nM	0.7 min	0.0165 s⁻¹	44600 M⁻¹ s⁻¹	681 nM	0.4 min	0.0277 s⁻¹	40600 M⁻¹ s⁻¹	H1H6959N2 (antibody, human IgG1, V domains shown, also called H2M6959N2) VH: EVQLVESGGGLVQPGRSLRLSCAASGFTFDDYAMHWVRQAPGKGLEWVSGISWHSGIIGYADSVKGRFTISRDNAKNSLYLQMNSLRTEDAALYYCAKIGSYFYFDSWGQGTLVTVSS VL: EIVLTQSPGTLSLSPGERATLSCRASQSVSSNYLAWYQQKPGQAPRLLIYGASSRATGIPDRFSGSGSGTDFTLTISRLEPEDFAVYYCQQFGSSGYTFGQGTNLEIK
